Measured values as given in US20130315920A1, “Cross Protective Epitopes of Aspergillus Fumigatus and Candida Albicans” (Cell Medica Limited, priority 2010, published 2013).

Key:
[1] = molecular target: PE-conjugated Crf1 p41-specific HLA-DRB1*0401 MHC class II tetramer (Aspergillus fumigatus; human); assay: flow cytometry, tetramer staining of T-cell lines expanded for 14 days
HLA-DRB1*03, 04 and 13 = assay: Minimal epitope analysis with 11-mer peptides; type: cell-based, human; details: data not shown
Text: To evaluate the utility of the Crf1 p41 epitope for potential clinical application, we defined the HLA restriction of Crf1 p41-specific CD4^+ T clones from different donors by stimulation with peptide-pulsed partially matched LCLs. […] As presentation of the Crf1 p41 peptide could also be mediated by other MHC class II alleles, we verified the HLA restriction by stimulation of PBMC from additional donors.
A peptide library covering the complete Crf1 sequence consisting of 94 15-mer peptides overlapping by […] (aa) was divided into sub-pools of 10 peptides and 94 single peptides (p1-p94) (PANATecs). 3 11-mer peptides of p40/41 overlapping by 2aa ([…], […], HTYTIDWTKDA) were obtained from JPT Peptide Technologies.

[2] = molecular target: recombinant A. fumigatus Crf1 protein with FLAG-Tag (Aspergillus fumigatus)
[3] = molecular target: recombinant A. fumigatus secreted protein peptidase (Aspergillus fumigatus)
[4] = system: T-cell lines from PBMC of healthy donors; assay: IFN-γ ELISA of T-cell lines stimulated with recombinant A. fumigatus proteins; type: cell-based, human; details: 5 μg/ml protein
Text: As the identification of potential protective fungal antigens is rather intricate due to the extensiveness of fungal genomes, we analyzed 6 different A. fumigatus recombinant proteins based on their previously reported immunogeneic reactivity in mice and humans^7,10. […] By contrast, GPI-anchored extracellular cell wall glucanase Crf1 and secreted protein peptidase induced high IFN-γ in 6 of 7 and 5 of 10 tested donors, respectively. The response was mediated by CD4^+ TH1 cells, as MHC class II blocking antibody nearly abrogated IFN-γ release (data not shown). Due to the broad response and the sequence similarity to the C. albicans orthologue Crh1, we focused in subsequent experiments on the protein Crf1. By epitope mapping of 7 healthy individuals with different MHC class II alleles, we identified 10 potential candidate epitopes (Table 1). Based on the results obtained by epitope mapping, the probability of antigen presentation by certain MHC class II alleles assessed by epitope prediction^11, previously reported immunogeneic reactivity^12 and sequence similarity to the C. albicans homologue Crh1, we then generated CD4^+ TH1 T-cell clones specific for the peptides p1, p22, p27, p41, p48, p59, p69 and p84 (FIG. 1a and Table 1).
A. fumigatus superoxide dismutase^34, catalase^35, peptidase^36 and 1,3-beta-glucanosyl-transferase Gel1^30 were produced in the yeast Pichia pastoris as described^37. Extracellular cell wall glucanase Crf1^37 (cDNA provided by Utz Reichard) and the major allergen and cytotoxin AspF1^10 were expressed with FLAG-Tags in the human cell line phoenix GALV^38.
For analysis of recombinant proteins and epitope mapping, T-cell lines were generated by incubation of 1×10^7 PBMC per well in 6-well cell culture plates with 5 μg/ml protein or peptide for 7d in the presence of 5 U/ml IL-2 (Proleukin, Chiron). Antigen specificity was analyzed by IFN-γ ELISA^42 after restimulation with autologous monocytes incubated overnight with 5 μg/ml protein in a responder to stimulator (R:S) ratio of 5:1. Epitope mapping was performed by IFN-γ ELISPOT^39 after stimulation with peptide-pulsed autologous DC at a R:S ratio of 10:1.

C. albicans = assay: Vaccination of mice before intragastric C. albicans infection; type: in vivo, BALB/c mice
Method: A. fumigatus Crf1 protein mediates cross-protection to C. albicans. Mice were injected intranasally with resting A. fumigatus conidia 14 days before infection, or with purified Crf1 protein and murine CpG oligodeoxynucleotide 1862 14, 7 and 3 days before intragastric infection with C. albicans. Note (a) the reduced inflammatory cell recruitment and acanthosis in mice vaccinated with A. fumigatus conidia or Crf1 protein as opposed to control mice shown in FIG. 5a and c and (b) the increase in protective TH1 and regulatory T-cell transcription factors and cytokine levels. Shown are fungal growth (CFU/organ, mean±SE), stomach histology and transcription factor and cytokine mRNA expression in CD4^+ T-cells from mesenteric lymph nodes a week after infection with C. albicans. Shown are results pooled from 2 experiments (6 animals/group). Bars indicate SE. P, vaccinated animals versus control. (c) Proliferation of purified CD4^+ spleen cells from untreated mice or animals vaccinated with A. fumigatus or C. albicans in response to control DC, anti-CD3E antibody, heat-inactivated A. fumigatus or C. albicans or A. fumigatus Crf1 p41 and p22 peptide. The results are expressed as mean cpm±SEM of triplicate cultures. P, stimulated versus control DC.
Mice were infected with 2×10^7 resting A. fumigatus conidia intranasally^7,45 and with 10^8C. albicans intragastrically^13. For co-infection, mice were infected a week before the subsequent infection. In the vaccination model, mice were injected intranasally with 2×10^7 Aspergillus resting conidia/20 μl saline once, 14d before infection, or with 5 μg purified Crf1p antigen^7 and 10 nM murine CpG oligodeoxynucleotide 1862, administered 14 d, 7 d and 3 d before intragastric C. albicans infection^7. Mice were monitored for survival (MST, days) and fungal growth (CFU/organ expressed as mean±SE). Mice dying of fungal challenge routinely underwent necropsy for histopathological confirmation of infection^7. […]

Q: For “Crf1 p41-specific CD4^+ T-cell lines expanded for 14 days (cells without a defined receptor)”, which frequency of antigen-specific cells as determined by tetramer (median) [1] is on record?
A: 50.6%

Q: How did the Minimal epitope (HLA-DRB1*03, 04 and 13) turn out when “HTYTIDWTKDA (peptide of A. fumigatus Crf1)” was run?
A: is the minimal epitope of Crf1 p41 for all 3 HLA alleles

Q: With “T-cell lines from PBMC of healthy donors, raised with the respective recombinant A. fumigatus protein (cells without a defined receptor)” as the molecule, how does the IFN-γ (ELISA) (of 7 tested donors) [2] read?
A: 6

Q: And the IFN-γ (ELISA) (of 10 tested donors) [3]?
A: 5

B1: Crf1: recombinant A. fumigatus GPI-anchored extracellular cell wall glucanase Crf1; given with CpG oligodeoxynucleotide 1862 in mice (protein)
chain: QTWSKCNPLEKTCPPNKGLAASTYTADFTSASALDQWEVTAGKVPVGPQGAEFTVAKQGDAPTIDTDFYFFFGKAEVVMKAAPGTGVVSSIVLESDDLDEVDWEVLGGDTTQVQTNYFGKGDTTTYDRGTYVPVATPQETFHTYTIDWTKDAVTWSIDGAVVRTLTYNDAKGGTRFPQTPMRLRLGSWAGGDPSNPKGTIEWAGGLTDYSAGPYTMYVKSVRIENANPAESYTYSDNSGSWQSIKFDGSVDISSSSSVTSSTTSTASSASSTSSKTPSTSTLATSTKATPTPSGTSSGSNSSSSAEPTTTGGTGSSNTGSGSGSGSGSGSSSSTGSSTSAGASATPELSQG
Q: What does the source list for B1?
A: donors with high IFN-γ of tested donors [4]: 6 of 7; Tbet/Foxp3 CD4+ T-cells and cytokines in mesenteric lymph nodes (C. albicans; a week after infection with C. albicans): activation of Tbet^+/Foxp3^+ CD4^+T-cells and their respective cytokines, IFN-γ and IL-10, in mesenteric lymph nodes; Protection against lethal infection (C. albicans; vaccinated mice): protected against lethal infection with C. albicans; Fungal burden and inflammatory pathology in the stomach (C. albicans; vaccination intranasally before intragastric C. albicans infection, Crf1 protein with CpG as adjuvant): both vaccination strategies reduced the fungal burden and inflammatory pathology in the stomach of mice with candidiasis
